Data published in paper PMC10518340, “Secreted LRPAP1 binds and triggers IFNAR1 degradation to facilitate virus evasion from cellular innate immunity” (Signal Transduction and Targeted Therapy, 2023).

B1: lactoferrin (protein, UniProt P02788 20-710, looked up)
Lactotransferrin: GRRRSVQWCAVSQPEATKCFQWQRNMRKVRGPPVSCIKRDSPIQCIQAIAENRADAVTLDGGFIYEAGLAPYKLRPVAAEVYGTERQPRTHYYAVAVVKKGGSFQLNELQGLKSCHTGLRRTAGWNVPIGTLRPFLNWTGPPEPIEAAVARFFSASCVPGADKGQFPNLCRLCAGTGENKCAFSSQEPYFSYSGAFKCLRDGAGDVAFIRESTVFEDLSDEAERDEYELLCPDNTRKPVDKFKDCHLARVPSHAVVARSVNGKEDAIWNLLRQAQEKFGKDKSPKFQLFGSPSGQKDLLFKDSAIGFSRVPPRIDSGLYLGSGYFTAIQNLRKSEEEVAARRARVVWCAVGEQELRKCNQWSGLSEGSVTCSSASTTEDCIALVLKGEADAMSLDGGYVYTAGKCGLVPVLAENYKSQQSSDPDPNCVDRPVEGYLAVAVVRRSDTSLTWNSVKGKKSCHTAVDRTAGWNIPMGLLFNQTGSCKFDEYFSQSCAPGSDPRSNLCALCIGDEQGENKCVPNSNERYYGYTGAFRCLAENAGDVAFVKDVTVLQNTDGNNNEAWAKDLKLADFALLCLDGKRKPVTEARSCHLAMAPNHAVVSRMDKVERLKQVLLHQQAKFGRNGSDCPDKFCLFQSETKNLLFNDNTECLARLHGKTTYEKYLGPQYVAGITNLKKCSTSPLLEACEFLRK
B2: alpha-2-macroglobulin (protein, UniProt P01023 24-1474, looked up)
Alpha-2-macroglobulin: SVSGKPQYMVLVPSLLHTETTEKGCVLLSYLNETVTVSASLESVRGNRSLFTDLEAENDVLHCVAFAVPKSSSNEEVMFLTVQVKGPTQEFKKRTTVMVKNEDSLVFVQTDKSIYKPGQTVKFRVVSMDENFHPLNELIPLVYIQDPKGNRIAQWQSFQLEGGLKQFSFPLSSEPFQGSYKVVVQKKSGGRTEHPFTVEEFVLPKFEVQVTVPKIITILEEEMNVSVCGLYTYGKPVPGHVTVSICRKYSDASDCHGEDSQAFCEKFSGQLNSHGCFYQQVKTKVFQLKRKEYEMKLHTEAQIQEEGTVVELTGRQSSEITRTITKLSFVKVDSHFRQGIPFFGQVRLVDGKGVPIPNKVIFIRGNEANYYSNATTDEHGLVQFSINTTNVMGTSLTVRVNYKDRSPCYGYQWVSEEHEEAHHTAYLVFSPSKSFVHLEPMSHELPCGHTQTVQAHYILNGGTLLGLKKLSFYYLIMAKGGIVRTGTHGLLVKQEDMKGHFSISIPVKSDIAPVARLLIYAVLPTGDVIGDSAKYDVENCLANKVDLSFSPSQSLPASHAHLRVTAAPQSVCALRAVDQSVLLMKPDAELSASSVYNLLPEKDLTGFPGPLNDQDNEDCINRHNVYINGITYTPVSSTNEKDMYSFLEDMGLKAFTNSKIRKPKMCPQLQQYEMHGPEGLRVGFYESDVMGRGHARLVHVEEPHTETVRKYFPETWIWDLVVVNSAGVAEVGVTVPDTITEWKAGAFCLSEDAGLGISSTASLRAFQPFFVELTMPYSVIRGEAFTLKATVLNYLPKCIRVSVQLEASPAFLAVPVEKEQAPHCICANGRQTVSWAVTPKSLGNVNFTVSAEALESQELCGTEVPSVPEHGRKDTVIKPLLVEPEGLEKETTFNSLLCPSGGEVSEELSLKLPPNVVEESARASVSVLGDILGSAMQNTQNLLQMPYGCGEQNMVLFAPNIYVLDYLNETQQLTPEIKSKAIGYLNTGYQRQLNYKHYDGSYSTFGERYGRNQGNTWLTAFVLKTFAQARAYIFIDEAHITQALIWLSQRQKDNGCFRSSGSLLNNAIKGGVEDEVTLSAYITIALLEIPLTVTHPVVRNALFCLESAWKTAQEGDHGSHVYTKALLAYAFALAGNQDKRKEVLKSLNEEAVKKDNSVHWERPQKPKAPVGHFYEPQAPSAEVEMTSYVLLAYLTAQPAPTSEDLTSATNIVKWITKQQNAQGGFSSTQDTVVALHALSKYGAATFTRTGKAAQVTIQSSGTFSSKFQVDNNNRLLLQQVSLPELPGEYSMKVTGEGCVYLQTSLKYNILPEKEEFPFALGVQTLPQTCDEPKAHTSFQISLSVSYTGSRSASNMAIVDVKMVSGFIPLKPTVKMLERSNHVSRTEVSSNHVLIYLDKVSNQTLSLFFTVLQDVPVRDLKPAIVKVYDYYETDEFAIAEYNAPCSKDLGNA

Key:
IFNAR1 [1] = test: IFNAR1 protein level, HepAD38 cells, immunoblot; assay type: cell-based; settings: siRNA or overexpression 48 h; LF 400 nM 24 h
IFNAR1 [2] = test: IFNAR1 protein level, immunoblot / immunofluorescence, RD cells; assay type: cell-based; settings: EV71 or HSV-1 MOI 10; α2M 20 nM, LF 400 nM
HBV = HBV level in HepAD38 cells, immunoblot; assay type: cell-based; settings: α2M 20 nM, 24 h
IFNAR1 [3] = test: IFNAR1 protein level, immunoblot, HEK-293T cells; assay type: cell-based, human; settings: HEK-293T, rLRPAP1 200 nM, α2M 20 nM, 1 h
HCoV-OC43 = HCoV-OC43 infection of RD cells (viral RNA, TCID50, CPE); settings: α2M 20 nM pre-treatment 1 h, MOI 1, 72 h
DNA and RNA viruses = test: Antiviral effect against DNA and RNA viruses (summary); assay type: cell-based; settings: dosages within the biosafety range (<1.5 mg/100 ml)
Method: Fig. 6 Inhibition of extracellular LRPAP1 reinforces the host cell’s innate immunity against multiple viruses’ infection. a–c RD cells were transfected with scramble siRNA or siLRPAP1 for 24 h. Then the cells were infected with HCoV-OC43 at an MOI of 1 for 72 h or HSV-1 at the indicated MOI for 24 h. Viral RNA level of HCoV-OC43 was analysed by RT-qPCR (a). Viral titer of HCoV-OC43 was measured by TCID50 assay (b). The relative viral DNA level of HSV-1 was analysed by RT-qPCR (c). d Immunoblots of lysates in HepAD38 cells transfected with scramble siRNA or siLRPAP1 for 48 h. e RD cells were transfected with scramble siRNA or siLRPAP1-1/-2 (si-1, si-2) for 24 h. Then the cells were infected with ZIKV at an MOI of 1 for 24 h. Viral RNA level of ZIKV was analysed by RT-qPCR. f, g The inhibitory effect of anti-LRPAP1 for HSV-1 infection. […] Densitometric analysis of VP1 levels in Fig. 6(i) was quantified and normalized with GAPDH using ImageJ (j). Densitometric analysis of HSV Envelope levels in Fig. 6(k) was quantified and normalized with GAPDH using ImageJ (l). m The schematic diagram of virus circumventing type I IFN signaling through LRPAP1.
a, The effect of siLRPAP1 on the infection of HCoV-OC43. […] Viral RNA level of HCoV-OC43 was analysed by RT-qPCR. b, RD cells were transfected with scramble siRNA or siLRPAP1 for 24 h, and cells were then inoculated with HCoV-OC43 at an MOI of 1 for 72 h. […]

HSV-1 = HSV-1 infection of RD cells (viral DNA, TCID50, viral protein, CPE); settings: α2M 20 nM, added 3 h post infection MOI 10, 21 h
EV71 = EV71 infection of RD cells (viral RNA, titer, viral protein, CPE); settings: α2M 20 nM, added 3 h post infection MOI 10, 6 h

Molecule | IFNAR1 expression in HepAD38 cells (IFNAR1 [1]) | IFNAR1 level under viral infections (IFNAR1 [2]) | HBV propagation (HBc) (HBV) | IFNAR1 level in cells treated with rLRPAP1 (IFNAR1 [3]) | HCoV-OC43 propagation (HCoV-OC43) | antiviral effect (DNA and RNA viruses) | HSV-1 propagation (Envelope) (HSV-1) | EV71 propagation (VP1) (EV71)
B1 | but not LF | but not LF |  |  |  |  |  | 
B2 |  | markedly upregulated IFNAR1 | significantly inhibited both DNA and RNA virus propagation | markedly upregulated IFNAR1 | significantly inhibited both DNA and RNA virus propagation | promising antiviral effects | significantly inhibited both DNA and RNA virus propagation | significantly inhibited both DNA and RNA virus propagation
